T1: synthetic 13-residue sulfatase consensus motif peptide LCSPSRGSLFTGR
T1 chain: LCSPSRGSLFTGR


Target: T1, synthetic 13-residue sulfatase …

Protein	conversion of cysteine to FGly in the peptide, by mass spectrometry (FGE activity assay)
Mycobacterium tuberculosis formylglycine generating enzyme (Mtb FGE, Rv0712), recombinant wild type (protein) LTELVDLPGGSFRMGSTRFYPEEAPIHTVTVRAFAVERHPVTNAQFAEFVSATGYVTVAEQPLDPGLYPGVDAADLCPGAMVFCPTAGPVDLRDWRQWWDWVPGACWRHPFGRDSDIADRAGHPVVQVAYPDAVAYARWAGRRLPTEAEWEYAARGGTTATYAWGDQEKPGGMLMANTWQGRFPYRNDGALGWVGTSPVGRFPANGFGLLDMIGNVWEWTTTEFYPHHRIDPPSTACCAPVKLATAADPTISQTLKGGSHLCAPEYCHRYRPAARSPQSQDTATTHIGFRCVADPVSG	Recombinant Rv0712 was able to modify a synthetic peptide containing the sulfatase motif as determined by mass spectrometry
Strep FGE Cys272Ser mutant (protein) AVAAPSPAAAAEPGPAARPRSTRGQVRLPGGEFAMGDAFGEGYPADGETPVHTVRLRPFHIDETAVTNARFAAFVKATGHVTDAERFGSSAVFHLVVAAPDADVLGSAAGAPWWINVRGAHWRRPEGARSDITGRPNHPVVHVSWNDATAYARWAGKRLPTEAEWEYAARGGLAGRRYAWGDELTPGGRWRCNIWQGRFPHVNTAEDGHLSTAPVKSYRPNGHGLWNTAGNVWEWCSDWFSPTYYAESPTVDPHGPGTGAARVLRGGSYLSHDSYCNRYRVAARSSNTPDSSSGNLGFRCANDADLTSGSAAE	serine mutants were unable to generate FGly in vitro
Strep FGE Cys277Ser mutant (protein) AVAAPSPAAAAEPGPAARPRSTRGQVRLPGGEFAMGDAFGEGYPADGETPVHTVRLRPFHIDETAVTNARFAAFVKATGHVTDAERFGSSAVFHLVVAAPDADVLGSAAGAPWWINVRGAHWRRPEGARSDITGRPNHPVVHVSWNDATAYARWAGKRLPTEAEWEYAARGGLAGRRYAWGDELTPGGRWRCNIWQGRFPHVNTAEDGHLSTAPVKSYRPNGHGLWNTAGNVWEWCSDWFSPTYYAESPTVDPHGPGTGAARVLRGGSYLCHDSYSNRYRVAARSSNTPDSSSGNLGFRCANDADLTSGSAAE	serine mutants were unable to generate FGly in vitro
Streptomyces coelicolor formylglycine generating enzyme (Strep FGE, SCO7548), recombinant wild type (protein) AVAAPSPAAAAEPGPAARPRSTRGQVRLPGGEFAMGDAFGEGYPADGETPVHTVRLRPFHIDETAVTNARFAAFVKATGHVTDAERFGSSAVFHLVVAAPDADVLGSAAGAPWWINVRGAHWRRPEGARSDITGRPNHPVVHVSWNDATAYARWAGKRLPTEAEWEYAARGGLAGRRYAWGDELTPGGRWRCNIWQGRFPHVNTAEDGHLSTAPVKSYRPNGHGLWNTAGNVWEWCSDWFSPTYYAESPTVDPHGPGTGAARVLRGGSYLCHDSYCNRYRVAARSSNTPDSSSGNLGFRCANDADLTSGSAAE	WT Strep FGE was able to oxidize the synthetic peptide
Strep FGE Trp234Phe mutant (protein) AVAAPSPAAAAEPGPAARPRSTRGQVRLPGGEFAMGDAFGEGYPADGETPVHTVRLRPFHIDETAVTNARFAAFVKATGHVTDAERFGSSAVFHLVVAAPDADVLGSAAGAPWWINVRGAHWRRPEGARSDITGRPNHPVVHVSWNDATAYARWAGKRLPTEAEWEYAARGGLAGRRYAWGDELTPGGRWRCNIWQGRFPHVNTAEDGHLSTAPVKSYRPNGHGLWNTAGNVFEWCSDWFSPTYYAESPTVDPHGPGTGAARVLRGGSYLCHDSYCNRYRVAARSSNTPDSSSGNLGFRCANDADLTSGSAAE	mutation of Trp234 to Phe did not abolish activity
